Laboratory results: US20220000762A1, “COMPOSITIONS FOR TREATING OXIDATIVE STRESS-ASSOCIATED SKIN DISEASES AND SKIN AGEING AND DIAGNOSIS OF OXIDATIVE STRESS-ASSOCIATED SKIN DISEASES” (priority 2019, published 2022)

Assays:
Ferrozine assay = assay type: biochemical; conditions: incubation 17 hours
Procedure: The reagents used in the ferrozine assay included 100 μl of 50 mM iron ammonium dodecahydrate, 100 μl 2 mM ferrozine in H2O, and RoxP (50 μl) resulting in various RoxP concentrations indicated in the graph, diluted from a stock solution of 2 mg/ml RoxP in PBS. Incubation was Incubation 17 hours.

Lyophilisation of RoxP = assay type: physicochemical; conditions: RoxP dissolved in water, absence of further excipients
From the text: Lyophilisation of proteins is also a well-established procedure in the art and typically employs an aqueous solution of the protein to be lyophilised, optionally admixed with one or more suitable lyophilisation excipients, such as trehalose, sucrose, raffinose, maltodextrin, mannitol, and/or dextran. […] The inventors have additionally observed that mannitol, and particularly 2-6% w/v, preferably 2-5% w/v, more preferably 2-4% w/v, or even more preferably 2-3% w/v mannitol (relative to the volume of the solution to be lyophilised) was especially advantageous for production of stable cake and preservation of RoxP activity.

[1] = Singlet Oxygen Sensor Green assay with UV-exposed porphyrins; assay type: biochemical; conditions: 1 μM Coproporphyrin III or Protoporphyrin IX, 10 min UV lamp, varying amounts of RoxP
Procedure: The Singlet Oxygen Sensor Green dye was dissolved in Methanol and added in PBS buffer to reach a final concentration of 0.4 μM. This solution was distributed in a clear 96 well plate. To the wells 1 μM Coproporphyrin III, or 1 μM Protoporphyrin IX was added. Then varying amounts of RoxP were added. Each condition was set up as 4 replicas. Two of the replicas were covered by aluminium foil during the exposure, while two wells were exposed for 10 min to a UV lamp. After exposure, the fluorescence of the Singlet Oxygen Sensor Green dye was read out indicating the amount of singlet oxygen generated.

[2] = Deoxyribose (TBA-MDA) assay; assay type: biochemical; conditions: 2 mg/ml RoxP, 37° C., 1 h
Procedure: Deoxyribose assay is a well-established method to measure generation of hydroxyl radicals in biological systems and for evaluating the ability of antioxidants to reduce .OH radical generation. Such assays are described for example in Gutteridge & Halliwell (Biochem J. 1988, vol. 253(3), 932-933) and references therein. In particular, deoxyribose incubated with H2O2 and Fe2^+ (or Fe3^+ plus a reductant) is degraded into products that can react to form thiobarbituric acid-malondialdehyde (classic TBA-MDA assay) chromogen. This reaction is driven by —OH radicals. A reduction in prevalence of .OH radicals will result in fewer formed complexes and lower absorbance.
A reaction mixture containing 5 mM 2-deoxyribose, 100 μM FeCl3, 100 μM EDTA, 1 mM H2O2, and 7.6 μg/ml ascorbic acid in buffer A (20 mM KH2PO4—KOH, pH 7.4), including or not 2 mg/ml RoxP, in triplicate, was incubated at 37° C. for 1 h (total volume 1 ml). After incubation, 1% w/v TBA (thiobarbituric acid) in 50 mM NaOH, and 2-8% v/v TCA (trichloroacetic acid) was added, followed by incubation at 95° C. for 15 minutes, and reading of absorbance at 532 nm.

THP-1 cells = assay: MTT viability assay, paraquat oxidative stress, monocytes; assay type: cell-based, human
Procedure: (§1) Human keratinocytes (HaCat cells; disclosed in Boukamp et al. 1988 J Cell Biol 106:761-71 and available from Deutsches Krebsforschungszentrum, DKFZ, info@cell-lines-service.de; and also commercially available for example from Addexbio, San Diego, Calif., catalogue number T0020001) were grown in SFM medium supplemented with L-glutamine, EGF (epidermal growth factor) and bovine pituitary extract (Gibson, Invitrogen) until 90% confluency in 96-well plates (Nunc A/S, Roskilde, Denmark). Human monocytes (THP-1 cells; disclosed in Tsuchiya et al. 1980 Int J Cancer 26:171-6; commercially available for example from Sigma-Aldrich, catalogue number 88081201; kindly provided by Dr Arne Egesten, Lund University) were cultured in RPMI 1640 medium supplemented with Glutamax-1 (Gibco®, ThermoFisher Scientific), 100 μg/ml streptomycin, 100 μg/ml penicillin, and 10% v/v foetal calf serum (ThermoFisher Scientific). All cells were grown at 37° C. in 5% CO2 and 95% humidity.
(§2) HaCat cells cultured to 90% confluency, or THP-1 cells (1.2×10^6 cells/well) in a 96-well plate were treated with 2 mM paraquat (Sigma-Aldrich) and/or 5 μM RoxP for 24-48 h. […] Viability was measured by the addition of 0.5 mg/ml 3-(4,5-demethylthiazol-2-yl)-2,5-diphenyltetrazolium bromide (MTT) for 1-5 hours. […] The samples incubated for 30 minutes and absorbance at 550 nm was measured using a Wallac 1420 Multilabel Counter ([…]). […]

[3] = RoxP interaction with coproporphyrin III (absorbance curves); assay type: binding; conditions: 1 mg/ml RoxP (100 μl) with 50 μg Coproporphyrin
Procedure: 1 mg/ml RoxP (100 μl) was mixed with 50 μg Coproporphyrin (10 μl) and total volume was adjusted to 290 μl with PBS. Absorbance was measured at different wavelengths. The absorbance curves indicate binding of coproporphyrin III by RoxP (see FIG. 26).

HaCat cells = assay: MTT viability assay, paraquat oxidative stress, keratinocytes; assay type: cell-based, human
Procedure: as §1, §2

B1: RoxP: radical oxygenase of Propionibacterium acnes, secreted antioxidant protein of C. acnes; SEQ ID NO: 1 for strain KPA171202 (protein)
chain: MFVQIAASLAAASSIALGIPGAATPIDESQLPVGPQVSVTDSAQHTGPFAASSPLTITVKPGAPCVRADGYQESMVTRVLDDKGHQVWTGTFDESKLIGGTGLGTATFHVGSPAAAFNFHGSERTTYRTLSYCAYPHYVNGTRERLSQVSVKTFMVDPALN
modifications: Cutibacterium acnes
reduction of Fe^3+ to Fe^2+ (Ferrozine assay): confirmed reduction of Fe^3+ to Fe^2+
preservation of RoxP activity after lyophilisation (Lyophilisation of RoxP): satisfactorily preserved the activity
generation of radicals formed through the porphyrins (singlet oxygen) [1]: efficiently inhibited
absorbance at 532 nm (generation of .OH radicals) [2]: reduced
effect on negative oxidative effect of paraquat (cell viability) (THP-1 cells; 2 mM paraquat, 5 μM RoxP (1:400 RoxP:oxidizer), 48 h, effect more prominent than in keratinocytes): completely inhibited
overall viability in the absence of an added oxidizer (THP-1 cells; no paraquat): increase the overall viability
binding of coproporphyrin III [3]: binding
effect on negative oxidative effect of paraquat (cell viability) (HaCat cells; 2 mM paraquat, 5 μM RoxP (1:400 RoxP:oxidizer), 24 h, responded less well): completely inhibited
overall viability in the absence of an added oxidizer (HaCat cells; no paraquat): increase the overall viability
